Results: the supplement of paper PMC9170038

System: MS2 coat protein
Test: apparent KD of MS2 coat protein; higher = weaker reporter binding
Conditions: Eterna round: R107
In short: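 Designed RNA switches, transcribed on-chip from Illumina sequencing clusters, were titrated with SNAP-549-labelled MS2 coat protein from 0.7 or 1.5 nM to 3 µM in twofold steps. The solution was 100 mM Tris-HCl pH 7.5, 80 mM KCl, 4 mM MgCl2, with constant ligand or without it. Apparent KD is the median over each design's normalised cluster binding-curve fits.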

[1] = input ligand: theophylline 20 uM
[2] = input ligand: tryptophan 2.4 mM
[3] = input ligand: theophylline 2 mM

Row | Sequence | apparent KD of MS2 coat protein (input ligand: arginine 13.2 mM) | apparent KD of MS2 coat protein [1] | apparent KD of MS2 coat protein [2] | apparent KD of MS2 coat protein [3] | apparent KD of MS2 coat protein (input ligand: none)
1 | GUGGAGACACGAGAUACCAGUCUCUAUAACAUGAGGAUCACCCAUGUAAUGCUCCUCAGGGACCCUUGGCAGCUCAGUAUGAUGA [Exclusion - Theophylline B] | 34.8 nM | 54.5 nM | 35.7 nM |  | 
2 | GUUACAUGGCAAGCAUGUAUAUGGAUAGAUACCAGUUGAUAUUAAGACCCUUGGCAGCUGAGUACAUGAGGAUCACCCAUGUAAG [Theo A Ex t3] | 28.4 nM | 46.9 nM | 51.9 nM |  | 
3 | GUUAUAUGAAAACAUAUAACAGUGGGUGAACGAGGACCGGUACGGCCGCCACUCGGACAUGAGGAUCACCCAUGUCCAUGUGAAA [AstrosExyTryA#6] | 15.2 nM | 17.4 nM |  | 22 nM | 
4 | GUUCGUCCUACGGCCGCCACUAAAACACAUGAGGAUCACCCAUGUUAGUAUCCUGGCUGGUGUGAUAGGACCGGGUAGGGAAGAA [theeternabot_exclusion_MS2_Trp_B_14] | 11 nM | 13.6 nM |  | 10.8 nM | 
5 | GUUGGUUUGCGAAGGAGCGGGUAUGUUGUCUACUGGAUCCUAACAUGAGGAUCACCCAUGUCCCAGGUAGGUCGCGCGGGCUUUG [12.aB] | 34.1 nM | 56.3 nM | 38.2 nM | 52.2 nM | 28.3 nM
6 | GUUGUAUACUCGGCCGCCACUGAGAGAGUCAUGUAAACAUGAGGAUCACCCAUGUAAUAUAUAUACAGGACCGGGAGUAUGGUAA [4.F] | 12.1 nM | 16.2 nM |  | 15.4 nM | 
7 | UAAAACAUGAGGAUCACCCAUGUAAAUGAUACCAGAGUGAUGAUCCUCCCUUGGCAGCAUAACGCUGAUUGGAAACAAUCAGCGA [Mat - Same State Theophlline A - Mod of Eli - D23] | 28.8 nM | 144 nM | 75.8 nM |  | 
8 | UAAAUAAUCUGGGUGUAGGUAAUAACAGAUACCAGCCAGAUAACUGGCCCUUGGCAGCUGAUAACAUGAGGAUCACCCAUGUAAA [Mat - Same State Theophlline A - Mod of Eli - D20] | 47 nM | 114 nM | 55.6 nM |  | 
9 | UAACAUGAGGAUCACCCAUGUUUAGAUGAACGAGGACCGGUACGGCCGCCACUCGAUAAGUGGAAGAAACGAGGGAUUGUAUGAU [Same State Trp A GF2] | 14.1 nM | 15.1 nM | 18.3 nM | 18.8 nM | 12.7 nM
10 | UAACAUGAGGAUCACCCAUGUUUGAAGGAACGAGGACCGGUACGGCCGCCACUCGACGAGUGGAUGAGAAGUGGGAUAGUGUGCU [Same State Trp A GF7] | 15.3 nM | 18.2 nM |  | 14.3 nM | 
11 | UAAGUUAGGGCGGCCGCCACUCGAACAUGAGGAUCACCCAUGUAAAUUAAUUAAAGGACAUGAAUGAGGACCGGGCCAAGUUAGA [Same State - Tryptophan B / A] | 13.9 nM | 20.2 nM |  | 15.2 nM | 
12 | UAAUAAAUAAAUCCAAGGUGAAGGUCAGAUACCAGCCAGAUAACUGGCCCUUGGCAGCUGAAUAAUCAUGAGGAUCACCCAUGAA [TheoAS 25 #OpenEnded #MS2Late #AlternativeMS2] | 17.2 nM | 24.7 nM | 19.5 nM | 63.9 nM | 22.8 nM
13 | UACAAACAUGAGGAUCACCCAUGUAGUGAUACCAGCAUAACAGAUUGCCCUUGGCAGCACCGGUUUGUACUCAAACGAAGUACGG [theeternabot_sameState_MS2_Theo_A_36] | 56 nM | 86.2 nM | 52.9 nM |  | 
14 | UACAUGAGGAUCACCCAUGUAUAGAGGGAUACCAGUGUCAGUGAGCACCCUUGGCAGCCCGCGAACAAUGGGUGCGCUAAAUAGU [#19 Exclusion-TheophyllineA] | 23.2 nM | 75.3 nM | 32.4 nM |  | 
15 | UACAUGAGGAUCACCCAUGUAUGAAUGGAUACCAGAUAAAAUAAGGUCCCUUGGCAGCUAGUGAAUCGAGGGUGGGUAUCAUGAU [#13 Exclusion-TheophyllineA] | 10.6 nM | 12.8 nM | 10.2 nM |  | 
16 | UACAUGAGGAUCACCCAUGUGGCGGAUGAUACCAGUAUGGUGACAUACCCUUGGCAGCAUGCUAUGAGGAUCACCCAUGUGUGCA [EThA NP+V+V2 #11 DOUBLE] | 56.3 nM | 84.9 nM | 70.7 nM |  | 
17 | UACCGAGAGGGAAGGAGCGCGAUAACAUAACAUGAGGAUCACCCAUGUAAGAAAUUAAUCAUGCAGGUAGGUCGCCCAAGCGGAU [Same State Arginine B GF 2] | 16.7 nM | 21.5 nM | 14.7 nM | 15.8 nM | 15.4 nM
18 | UACUUGCUGACGGCCGCCACUAGAACAUGAGGAUCACCCAUGUAAGUGGUUGGUUCAUGGGUGACUAGGACCGGGUCAGCAAGAU [(Trp1)-(Ms2)-(T)'-(M)'-(Trp2)_Design19] | 26.9 nM | 47.9 nM |  | 37.7 nM | 
19 | UAGACGGCCGGAAGGAGCGGUACAUGAGGAUCACCCAUGUACCUCUGGGCAUCCGUAGUGUGCCAGGUAGGUCGCCGGUUGCGGG [Tebecela] | 12.6 nM | 12.5 nM | 13.7 nM | 11.4 nM | 11.6 nM
20 | UAGGCACGAGACAUGAGGAUCACCCAUGUUCGAGGACCGGUACGGCCGCCACUCGGUGGACUCAUGGUAAAGCCGGUGAGCCAAU [AK 1.2 SS Trypt (A)] | 16.7 nM | 28.1 nM | 51.6 nM | 15.8 nM | 17.1 nM
21 | UAGUAACAUGAGGAUCACCCAUGUCCGGAUACCAGACAUAUACCAGUCCCUUGGCAGCCGCCAGUUAAAAUCUAACACAAAAGUU [theeternabot_sameState_MS2_Theo_A_34] | 38.8 nM | 55 nM | 34.4 nM |  | 
22 | UAUAAAAUAACAGAUACCAGCGUGUUAUAAAACAUGAGGAUCACCCAUGUAGUGAUCAAGCGCCCUUGGCAGCUGGUAUUUUAUA [7.B] | 97.2 nM | 150 nM | 142 nM |  | 
23 | UAUACAUGAGGAUCACCCAUGUACCAUGAAGGAGCGCAGAAAUCUGCAGGUAGGUCGCAUGGGUUAUGACCUCGGCAUAAUAACG [Enreusus] | 40.5 nM | 46.9 nM | 26.2 nM | 39.7 nM | 27.8 nM
24 | UAUAUAGAUGGACGUCAUAUAGAUGCAGAAGGAGCGUAGGAAACUACAGGUAGGUCGCUGAGGUACAUGAGGAUCACCCAUGUAG [SSArg A #19 Slice of Pi] | 34.3 nM | 38 nM | 20.9 nM | 37.9 nM | 26.5 nM
25 | UAUAUAUAAAUUGAUACCAGCGAGAAAACAUGAGGAUCACCCAUGUUCGCCCAUGUUAAGCGCCCUUGGCAGCAAUAUUAUUAUU [AstrosExyTheB#3] | 18.8 nM | 33.4 nM | 33.8 nM |  | 
26 | UAUCCACAUGAGGAUCACCCAUGUAGGGAAGGAGCGGUGAUUUCACCAGGUAGGUCGCCUUGCUGAGGGUAGCCGGUGGAAUCGU [Exclusion - Arginine A (Freestyle 32)] | 24.4 nM | 22.4 nM | 10.9 nM | 9.15 nM | 19.7 nM
27 | UAUCCACAUGAGGAUCACCCAUGUAUGGAAGGAGCGGUGAAUGAACCAGGUAGGUCGCCAUGGUGAGGAUCAUCUAUGGAUUCGU [Exclusion - Arginine A (Freestyle 9)] | 30.3 nM | 82.4 nM | 86.7 nM | 72.2 nM | 56.5 nM
28 | UAUCGAAACUGAAGGAGCGAGAUGACAAACAUGAGGAUCACCCAUGUUAUGGGUUGUUAAUCUCAGGUAGGUCGCAGUGGUAGCA [Same State Arginine B GF 17] | 88.1 nM | 142 nM | 156 nM | 245 nM | 141 nM
